Results reported in patent publication US20200407435A1 (Boehringer Ingelheim, published 2020).
Several values for one entry are separate records, joined by “and”; a condition that tells them apart may be missing. Identical values can stand only once.

B1: MEDI3617 analog (Medimmune) (antibody, human IgG1, kappa, V domains shown)
VH: QVQLVESGGGVVQPGRSLRLSCAASGFTFTNYGMHWVRQAPGKGLEWVAVISHDGNNKYYVDSVKGRFTISRDNSKNTLYLQMNSLRAEDTAVYYCAREGIDFWSGLNWFDPWGQGTLVTVSS
VL: EIVLTQSPGTLSLSPGERATLSCRASQSITGSYLAWYQQKPGQAPRLLITGASSWATGIPDRFSGSGSGTDFTLTISRLEPEDFAVYYCQQYSSSPITFGQGTRLEIKR
notes: Based on the description in U.S. Pat. No. 8,507,656; also called MED3617 analog; analog of MED3617
B2: ANGPT2-opt-31 (humanized) (antibody, human IgG1, kappa, V domains shown)
VH: QVQLVQSGAEVKKPGSSVKVSCKASGYIFIDYFINWVRQAPGQGLEWMGKIGPGSGSSSSNEKFKGRVTITADKSTSTAYMELSSLRSEDTAVYYCAREAFDYDGDYYGMAYWGQGTLVTVSS
VL: EIVMTQSPATLSVSPGERATLSCKSSQSLLSSGNQKSFLAWYQQKPGQAPRLLIYGASTRESGIPARFSGSGSGTEFTLTISSLQSEDFAVYYCQNDHSYPITFGQGTKLEIKR
notes: also called Ang2-opt-31
B3: ANGPT2-opt-1 (humanized) (antibody, human IgG1, kappa, V domains shown)
VH: QVQLVQSGAEVKKPGSSVKVSCKASGYIFIDYFINWVRQAPGQGLEWMGKIGPGSGSSSSNEKFKGRVTITADKSTSTAYMELSSLRSEDTAVYYCAREAFDYEGDYYGMAYWGQGTLVTVSS
VL: EIVMTQSPATLSVSPGERATLSCKSSQSLLASGNQKNFLAWYQQKPGQAPRLLIYGASTRESGIPARFSGSGSGTEFTLTISSLQSEDFAVYYCQNDHSYPITFGQGTKLEIKR
notes: also called Ang2-opt-1
B4: ANGPT2-opt-2 (humanized) (antibody, human IgG1, kappa, V domains shown)
VH: QVQLVQSGAEVKKPGSSVKVSCKASGYIFIEYFINWVRQAPGQGLEWMGKIGPGSGSSSSNEKFKGRVTITADKSTSTAYMELSSLRSEDTAVYYCAREAFDYEGDYYGMAYWGQGTLVTVSS
VL: EIVMTQSPATLSVSPGERATLSCKSSQSLLASGNQKNFLAWYQQKPGQAPRLLIYGASTRESGIPARFSGSGSGTEFTLTISSLQSEDFAVYYCQNDHSYPITFGQGTKLEIKR
notes: also called Ang2-opt-2; ANGP12-opt-2
B5: Nesvacumab analog (Regeneron) (antibody, V domains shown)
VH: EVQLVESGGGLVQPGGSLRLSCAASGFTFSSYDIHWVRQATGKGLEWVSAIGPAGDTYYPGSVKGRFTISRENAKNSLYLQMNSLRAGDTAVYYCARGLITFGGLIAPFDYWGQGTLVTVSS
VL: EIVLTQSPGTLSLSPGERATLSCRASQSVSSTYLAWYQQKPGQAPRLLIYGASSRATGIPDRFSGSGSGTDFTLTISRLEPEDFAVYYCQHYDNSQTFGQGTKVEIKR
notes: also called analog of REGN910 (nesvacumab); Nevescumab analog
B6: chimeric lead CL-209881 (antibody, V domains shown)
VH: QVQLKQSGAELVKPGSSVKISCRASGYIFIDYFINWVKQRPGQGLEWIGKIGPGSGSSSSNEKFKGKATLTADKSSSTAYMQLSSLTSEDSAVYFCAREAFDYDGDYYGMAYWGQGTSVTVSS
VL: DIVMTQSPSSLSVSAGEKVTMSCKSSQSLLNSGNQKNFLAWYQQKPGQPPKLLIYGASTRESGVPDRFTGSGSGTDFTLTITSVQAEDLAVYYCQNDHSYPITFGSGTKLEIK
notes: Chimeric antibody with murine variable domains; the constant regions of the tested antibody are not
B7: LC06 (Roche) (antibody, human IgG1, lambda, V domains shown)
VH: not shown
VL: QPGLTQPPSVSVAPGQTARITCGGNNIGSKSVHWYQQKPGQAPVLVVYDDSDRPSGIPERFSGSNSGNTATLTISRVEAGDEADYYCQVWDSSSDHYVFGTGTKVTVLG
notes: Based on the description in U.S. Pat. No. 9,340,609

What was measured:
[1] = target: T1, rhAngiopoietin-2 (R&D systems cat 623-AN/CF) (human, UniProt O15123 19-496, limits assumed); experiment: cell-based or functional assay
T1 sequence (looked up): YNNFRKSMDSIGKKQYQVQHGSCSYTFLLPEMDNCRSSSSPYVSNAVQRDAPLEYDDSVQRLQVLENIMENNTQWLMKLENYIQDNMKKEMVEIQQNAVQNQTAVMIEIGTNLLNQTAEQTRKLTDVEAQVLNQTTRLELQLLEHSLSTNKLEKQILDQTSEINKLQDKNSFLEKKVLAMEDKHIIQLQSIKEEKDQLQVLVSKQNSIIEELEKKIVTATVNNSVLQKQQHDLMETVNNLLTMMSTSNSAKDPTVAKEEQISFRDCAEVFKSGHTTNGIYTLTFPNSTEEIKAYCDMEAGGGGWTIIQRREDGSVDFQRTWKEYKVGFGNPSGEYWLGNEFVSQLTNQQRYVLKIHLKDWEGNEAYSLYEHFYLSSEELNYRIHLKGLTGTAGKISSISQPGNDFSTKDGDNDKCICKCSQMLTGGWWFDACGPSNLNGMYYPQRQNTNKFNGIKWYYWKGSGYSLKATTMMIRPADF

[2] = target: T2, human ANGPT2 (SPR analyte) (human, UniProt O15123 275-496, limits assumed); experiment: SPR (ProteOn XPR36), antibody captured on Protein A/G, ANGPT2 as analyte, 1:1 Langmuir fit
T2 construct: domain: FLD domain; also called HuANGPT2; human ANGPT2 FLD domain
T2 sequence (looked up): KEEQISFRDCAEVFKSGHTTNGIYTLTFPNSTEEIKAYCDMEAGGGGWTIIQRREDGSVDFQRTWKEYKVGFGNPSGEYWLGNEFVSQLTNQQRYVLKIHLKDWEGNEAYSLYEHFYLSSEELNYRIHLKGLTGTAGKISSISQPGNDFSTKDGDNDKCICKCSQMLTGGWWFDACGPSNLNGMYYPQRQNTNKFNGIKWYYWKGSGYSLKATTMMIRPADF
Description: (§1) The binding affinity to the various ANGPT2 analytes is determined by surface plasmon resonance (SPR) using a ProteOn XPR36 (Bio-Rad). Unless otherwise stated, all reagents are obtained from Bio-Rad. The running buffer for all assays and dilutions (except where stated) is phosphate buffered saline (PBS)/ethylenediamine tetraacetic acid (EDTA) with 0.01% Tween20 (PBS-T-EDTA). PBS-T-EDTA is prepared by adding 100 μl of 100% Tween20 to 2 L of PBS-T-EDTA with an initial concentration of 0.005% Tween20 to make a final Tween20 concentration of 0.01%. The general linearized model (GLM) sensorchip is normalized, pre-conditioned, and activated with an equal mixture of 1-ethyl-3-[3-dimethylaminopropyl]carbodiimide (EDC)/N-hydroxysulfosuccinimide (s-NHS) in the horizontal direction for 300 sec at a flow rate of 30 μl/min. Immobilization is then is done with Recombinant Protein A/G (Thermo Scientific) (60 μg/ml in 10 mM acetate pH 4.5) in the horizontal direction for 300 sec at a flowrate of 30 μl/min resulting in about 4370-4875 response units (RUs) of Protein A/G on the surface. The sensorchip is then deactivated with 1M ethanolamine HCl in the horizontal direction for 300 sec at a flowrate of 30 μl/min. The sensorchip is stabilized with 18 sec of 0.85% phosphoric acid at a flowrate of 100 μl/min 3 times horizontally and 3 times vertically.
(§2) Each ANGPT2 antibody is captured on the Protein A/G surface vertically for 300 sec at a flowrate of 30 μl/min resulting in a capture level of about 2500 RU. The baseline is stabilized by injecting PBS-T-EDTA for 60 sec at a flowrate of 100 μl/min horizontally with dissociation of 120 sec. The analyte (e.g., HuANGPT2) is injected horizontally over the captured antibody for 300 sec at a flowrate of 30 μl/min and a dissociation for 1800 sec. […] The surface is regenerated by injecting 0.85% phosphoric acid for 18 sec at a flowrate of 100 μl/min one time horizontally and one time vertically. PBS-T-EDTA is injected for 60 sec at a flowrate of 100 μl/min one time vertically and one time horizontally.
(§3) The interspot (interactions with sensor surface) and blank (PBS-T-EDTA with 0.01% Tween20 or 0 nM of analyte (here HuANGPT2)) are subtracted from the raw data.

cynomolgus (cyno) ANGPT2 = target: T3, cynomolgus (cyno) ANGPT2 (cynomolgus, UniProt A0A2K5VNX6 275-496); experiment: as above
T3 construct: domain: FLD domain; also called cyno ANGPT2 FLD domain
T3 sequence: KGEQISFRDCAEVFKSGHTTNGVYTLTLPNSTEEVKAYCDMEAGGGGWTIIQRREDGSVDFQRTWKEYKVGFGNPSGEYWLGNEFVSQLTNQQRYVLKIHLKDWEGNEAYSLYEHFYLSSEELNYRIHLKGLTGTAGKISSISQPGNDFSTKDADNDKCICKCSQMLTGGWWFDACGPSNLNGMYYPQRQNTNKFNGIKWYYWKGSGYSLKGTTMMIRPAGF
Description: as §1, §2, §3

[3] = target: T4, Human ANGPT2 Dimer (CC-FLD) (human, UniProt O15123 74-496, limits assumed); experiment: flow cytometry blocking assay: antibody titrated against His-tagged human ANGPT2 dimer (CC-FLD) binding to HEK293 human Tie2 cells
T4 construct: domain: CC-FLD; also called ANGPT2 protein with His-tag; not shown: His-tag
T4 sequence (looked up): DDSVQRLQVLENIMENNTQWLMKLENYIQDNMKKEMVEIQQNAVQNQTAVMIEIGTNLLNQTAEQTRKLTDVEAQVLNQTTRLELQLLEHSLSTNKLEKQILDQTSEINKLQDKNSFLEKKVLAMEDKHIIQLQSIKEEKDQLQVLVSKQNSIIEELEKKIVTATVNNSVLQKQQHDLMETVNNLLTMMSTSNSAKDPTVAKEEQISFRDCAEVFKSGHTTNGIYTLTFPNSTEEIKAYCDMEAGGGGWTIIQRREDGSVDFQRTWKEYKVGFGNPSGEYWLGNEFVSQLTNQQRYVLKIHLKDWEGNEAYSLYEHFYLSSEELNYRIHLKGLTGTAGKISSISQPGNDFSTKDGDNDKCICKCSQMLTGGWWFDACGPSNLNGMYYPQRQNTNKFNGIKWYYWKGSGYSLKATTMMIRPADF
Description: Human ANGPT2 Dimer (CC-FLD) is pre-incubated with the testing antibodies. The ANGPT2/Antibody mixture is then incubated with HEK293 human Tie2 cells at 4° C. After washing, the cells are stained with anti-His-AF647 (from GenScript) for detection of the His-tag on the ANGPT2 protein. The binding of the secondarily labelled ANGPT2 to human Tie2 cells is detected by FLOW cytometry. The average of the duplicate values for each concentration point is used to derive the curve fit graphs. Antibodies that prevent ANGPT2 from binding to the Tie2 cells are considered blocking antibodies. The results are shown in FIGS. 3A-3G and the EC50 values are shown in Table 5 based on the average of duplicate values.

rat ANGPT2 = target: T5, rat ANGPT2 (rat, UniProt O35462 275-496, limits assumed); experiment: SPR (ProteOn XPR36), antibody captured on Protein A/G, rat ANGPT2 as analyte
T5 construct: domain: FLD domain; also called rat ANGPT2 FLD domain
T5 sequence (looked up): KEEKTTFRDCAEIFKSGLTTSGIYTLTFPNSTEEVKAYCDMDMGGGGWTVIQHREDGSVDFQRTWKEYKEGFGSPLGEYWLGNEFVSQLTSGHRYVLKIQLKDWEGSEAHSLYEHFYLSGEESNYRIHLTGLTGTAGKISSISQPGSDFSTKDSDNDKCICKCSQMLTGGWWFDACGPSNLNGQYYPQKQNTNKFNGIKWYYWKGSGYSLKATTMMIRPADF
Description: as §1
as §2, with “horizontally. […]” for “horizontally.”

Row | Binder | Tie2 phosphorylation functional assay, EC50 [1] | Kd [2] | koff [2] | kon [2] | Kd (cynomolgus (cyno) ANGPT2) | koff (cynomolgus (cyno) ANGPT2) | kon (cynomolgus (cyno) ANGPT2) | EC50 [3] | Kd (rat ANGPT2)
1 | B1 | 2.7 nM | 27 nM | 0.0166 s⁻¹ | 614000 M⁻¹ s⁻¹ | – | – | – | – | –
2 | B2 | 3.8 nM and 4.4 nM | 0.091 nM | 1.14e-05 s⁻¹ | 125000 M⁻¹ s⁻¹ | 0.145 nM | 1.96e-05 s⁻¹ | 135000 M⁻¹ s⁻¹ | 13 nM | –
3 | B3 | 3 nM and 3.2 nM | 0.294 nM | 4.25e-05 s⁻¹ | 144000 M⁻¹ s⁻¹ | 0.36 nM | 5.48e-05 s⁻¹ | 152000 M⁻¹ s⁻¹ | 13.2 nM | –
4 | B4 | 1.8 nM and 1.9 nM | 0.649 nM | 8.11e-05 s⁻¹ | 125000 M⁻¹ s⁻¹ | 0.626 nM | 8.45e-05 s⁻¹ | 135000 M⁻¹ s⁻¹ | 14.8 nM | ≥ 118 nM
5 | B5 | – | – | – | – | – | – | – | – | 0.159 nM
6 | B6 | – | 0.155 nM | 2.34e-05 s⁻¹ | 151000 M⁻¹ s⁻¹ | 0.24 nM | 3.93e-05 s⁻¹ | 164000 M⁻¹ s⁻¹ | – | –
7 | B7 | 1.3 nM | 12 nM | – | – | – | – | – | – | –
